Assay results published in patent US20210388087A1 (Chugai, published 2021).
Substitutions are numbered along the chain they refer to.

B1: CE115HA000/GLS3000 S52D (antibody, IgG1, name in Kabat numbering, V domains shown)
VH: QVQLVESGGGVVQPGRSLRLSCAASGFTFSNAWMHWVRQAPGKGLEWVAQIKAKSNNYATYYAESVKGRFTISRDDSKNSLYLQMNSLKTEDTAVYYCRYVHYGAYYGVDAWGQGTTVTVSS
VL: DIVMTQSPLSLPVTPGEPASISCRSSQSLVHSNRNTYLHWYQQKPGQAPRLLIYKVDNRFSGVPDRFSGSGSGTDFTLKISRVEAEDVGVYYCGQGTQVPYTFGQGTKLEIK
notes: one-arm IgG1
B2: CE115HA000/GLS3000 S56F (antibody, IgG1, name in Kabat numbering, V domains shown)
VH: B1 VH
VL: B1 VL with D57S, S61F
notes: one-arm IgG1
B3: CE115HA000/GLS3000 S56P (antibody, IgG1, name in Kabat numbering, V domains shown)
VH: B1 VH
VL: B1 VL with D57S, S61P
notes: one-arm IgG1
B4: CE115HA000/GLS3000 V27cS (antibody, IgG1, name in Kabat numbering, V domains shown)
VH: B1 VH
VL: B1 VL with V30S, D57S
notes: one-arm IgG1
B5: CE115HA000/GLS3000 T92S (antibody, IgG1, name in Kabat numbering, V domains shown)
VH: B1 VH
VL: B1 VL with D57S, T97S
notes: one-arm IgG1
B6: CE115HA000/GLS3000 S52Q (antibody, IgG1, name in Kabat numbering, V domains shown)
VH: B1 VH
VL: B1 VL with D57Q
notes: one-arm IgG1
B7: CE115HA000/GLS3000 V27cY (antibody, IgG1, name in Kabat numbering, V domains shown)
VH: B1 VH
VL: B1 VL with V30Y, D57S
notes: one-arm IgG1
B8: CE115HA000/GLS3000 S56Q (antibody, IgG1, name in Kabat numbering, V domains shown)
VH: B1 VH
VL: B1 VL with D57S, S61Q
notes: one-arm IgG1
B9: CE115HA000/GLS3000 V27cP (antibody, IgG1, name in Kabat numbering, V domains shown)
VH: B1 VH
VL: B1 VL with V30P, D57S
notes: one-arm IgG1
B10: CE115HA000/GLS3000 S56W (antibody, IgG1, name in Kabat numbering, V domains shown)
VH: B1 VH
VL: B1 VL with D57S, S61W
notes: one-arm IgG1
B11: CE115HA000/GLS3000 S56H (antibody, IgG1, name in Kabat numbering, V domains shown)
VH: B1 VH
VL: B1 VL with D57S, S61H
notes: one-arm IgG1
B12: CE115HA000/GLS3000 S52Y (antibody, IgG1, name in Kabat numbering, V domains shown)
VH: B1 VH
VL: B1 VL with D57Y
notes: one-arm IgG1
B13: CE115HA000/GLS3000 V27cI (antibody, IgG1, name in Kabat numbering, V domains shown)
VH: B1 VH
VL: B1 VL with V30I, D57S
notes: one-arm IgG1
B14: CE115HA000/GLS3000 T92I (antibody, IgG1, name in Kabat numbering, V domains shown)
VH: B1 VH
VL: B1 VL with D57S, T97I
notes: one-arm IgG1
B15: CE115HA000/GLS3000 T92L (antibody, IgG1, name in Kabat numbering, V domains shown)
VH: B1 VH
VL: B1 VL with D57S, T97L
notes: one-arm IgG1
B16: CE115HA000/GLS3000 S52P (antibody, IgG1, name in Kabat numbering, V domains shown)
VH: B1 VH
VL: B1 VL with D57P
notes: one-arm IgG1
B17: CE115HA000/GLS3000 S56V (antibody, IgG1, name in Kabat numbering, V domains shown)
VH: B1 VH
VL: B1 VL with D57S, S61V
notes: one-arm IgG1
B18: CE115HA000/GLS3000 T92Y (antibody, IgG1, name in Kabat numbering, V domains shown)
VH: B1 VH
VL: B1 VL with D57S, T97Y
notes: one-arm IgG1
B19: CE115HA000/GLS3000 T31E (antibody, IgG1, name in Kabat numbering, V domains shown)
VH: B1 VH
VL: B1 VL with T36E, D57S
notes: one-arm IgG1
B20: CE115HA000/GLS3000 V51E (antibody, IgG1, name in Kabat numbering, V domains shown)
VH: B1 VH
VL: B1 VL with V56E, D57S
notes: one-arm IgG1
B21: CE115HA000/GLS3000 S56R (antibody, IgG1, name in Kabat numbering, V domains shown)
VH: B1 VH
VL: B1 VL with D57S, S61R
notes: one-arm IgG1
B22: CE115HA000/GLS3000 S56T (antibody, IgG1, name in Kabat numbering, V domains shown)
VH: B1 VH
VL: B1 VL with D57S, S61T
notes: one-arm IgG1
B23: CE115HA000/GLS3000 S56K (antibody, IgG1, name in Kabat numbering, V domains shown)
VH: B1 VH
VL: B1 VL with D57S, S61K
notes: one-arm IgG1
B24: CE115HA000/GLS3000 T92E (antibody, IgG1, name in Kabat numbering, V domains shown)
VH: B1 VH
VL: B1 VL with D57S, T97E
notes: one-arm IgG1
B25: CE115HA000/GLS3000 T92P (antibody, IgG1, name in Kabat numbering, V domains shown)
VH: B1 VH
VL: B1 VL with D57S, T97P
notes: one-arm IgG1
B26: CE115HA000/GLS3000 T31N (antibody, IgG1, name in Kabat numbering, V domains shown)
VH: B1 VH
VL: B1 VL with T36N, D57S
notes: one-arm IgG1
B27: CE115HA000/GLS3000 S56G (antibody, IgG1, name in Kabat numbering, V domains shown)
VH: B1 VH
VL: B1 VL with D57S, S61G
notes: one-arm IgG1
B28: CE115HA000/GLS3000 S56I (antibody, IgG1, name in Kabat numbering, V domains shown)
VH: B1 VH
VL: B1 VL with D57S, S61I
notes: one-arm IgG1
B29: CE115HA000/GLS3000 T31I (antibody, IgG1, name in Kabat numbering, V domains shown)
VH: B1 VH
VL: B1 VL with T36I, D57S
notes: one-arm IgG1
B30: CE115HA000/GLS3000 T31P (antibody, IgG1, name in Kabat numbering, V domains shown)
VH: B1 VH
VL: B1 VL with T36P, D57S
notes: one-arm IgG1
B31: CE115HA000/GLS3000 V51G (antibody, IgG1, name in Kabat numbering, V domains shown)
VH: B1 VH
VL: B1 VL with V56G, D57S
notes: one-arm IgG1
B32: CE115HA000/GLS3000 S56L (antibody, IgG1, name in Kabat numbering, V domains shown)
VH: B1 VH
VL: B1 VL with D57S, S61L
notes: one-arm IgG1
B33: CE115HA000/GLS3000 V27cE (antibody, IgG1, name in Kabat numbering, V domains shown)
VH: B1 VH
VL: B1 VL with V30E, D57S
notes: one-arm IgG1
B34: CE115HA000/GLS3000 T31D (antibody, IgG1, name in Kabat numbering, V domains shown)
VH: B1 VH
VL: B1 VL with T36D, D57S
notes: one-arm IgG1
B35: CE115HA000/GLS3000 S56D (antibody, IgG1, name in Kabat numbering, V domains shown)
VH: B1 VH
VL: B1 VL with D57S, S61D
notes: one-arm IgG1
B36: CE115HA000/GLS3000 S56E (antibody, IgG1, name in Kabat numbering, V domains shown)
VH: B1 VH
VL: B1 VL with D57S, S61E
notes: one-arm IgG1
B37: CE115HA000/GLS3000 T92D (antibody, IgG1, name in Kabat numbering, V domains shown)
VH: B1 VH
VL: B1 VL with D57S, T97D
notes: one-arm IgG1
B38: CE115HA000/GLS3000 S56A (antibody, IgG1, name in Kabat numbering, V domains shown)
VH: B1 VH
VL: B1 VL with D57S, S61A
notes: one-arm IgG1
B39: CE115HA000/GLS3000 S56M (antibody, IgG1, name in Kabat numbering, V domains shown)
VH: B1 VH
VL: B1 VL with D57S, S61M
notes: one-arm IgG1
B40: CE115HA000/GLS3000 T31K (antibody, IgG1, name in Kabat numbering, V domains shown)
VH: B1 VH
VL: B1 VL with T36K, D57S
notes: one-arm IgG1
B41: CE115HA000/GLS3000 V27cD (antibody, IgG1, name in Kabat numbering, V domains shown)
VH: B1 VH
VL: B1 VL with V30D, D57S
notes: one-arm IgG1
B42: CE115HA000/GLS3000 V51D (antibody, IgG1, name in Kabat numbering, V domains shown)
VH: B1 VH
VL: B1 VL with V56D, D57S
notes: one-arm IgG1
B43: CE115HA000/GLS3000 S56N (antibody, IgG1, name in Kabat numbering, V domains shown)
VH: B1 VH
VL: B1 VL with D57S, S61N
notes: one-arm IgG1
B44: CE115HA000/GLS3000 V27cL (antibody, IgG1, name in Kabat numbering, V domains shown)
VH: B1 VH
VL: B1 VL with V30L, D57S
notes: one-arm IgG1
B45: CE115HA000/GLS3000 S56Y (antibody, IgG1, name in Kabat numbering, V domains shown)
VH: B1 VH
VL: B1 VL with D57S, S61Y
notes: one-arm IgG1
B46: CE115HA000/GLS3000 T92A (antibody, IgG1, name in Kabat numbering, V domains shown)
VH: B1 VH
VL: B1 VL with D57S, T97A
notes: one-arm IgG1
B47: CE115HA000/GLS3000 T97P (antibody, IgG1, name in Kabat numbering, V domains shown)
VH: B1 VH
VL: B1 VL with D57S, T102P
notes: one-arm IgG1

These binders were tested against T1, CD3 epsilon homodimer protein (UniProt P07766 23-126) (assay: SPR, antibody over immobilised CD3e homodimer;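 also: SPR at 25 °C with CD3 epsilon homodimer amine-coupled to a CM4 sensor chip and antibody flowed over as analyte in HBS-EP+ running buffer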).
T1 construct: also called CD3 (CD3 epsilon)
T1 sequence (P07766 23-126): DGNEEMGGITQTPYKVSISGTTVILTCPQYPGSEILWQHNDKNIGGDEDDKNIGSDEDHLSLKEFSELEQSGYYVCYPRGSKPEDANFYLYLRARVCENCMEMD

| Binder | KD ratio to GLS3000 |
| --- | --- |
| B1 | 0.94 |
| B2 | 1.12 |
| B3 | 0.98 |
| B4 | 3.04 |
| B5 | 0.81 |
| B6 | 1.01 |
| B7 | 1.25 |
| B8 | 0.97 |
| B9 | 3.71 |
| B10 | 1.12 |
| B11 | 0.96 |
| B12 | 1.02 |
| B13 | 1.03 |
| B14 | 1.91 |
| B15 | 1.61 |
| B16 | 7.38 |
| B17 | 0.94 |
| B18 | 2.55 |
| B19 | 1.59 |
| B20 | 0.88 |
| B21 | 1.15 |
| B22 | 1.01 |
| B23 | 1.21 |
| B24 | 19.6 |

| Binder | KD ratio to GLS3000 |
| --- | --- |
| B25 | 26.7 |
| B26 | 4.46 |
| B27 | 0.99 |
| B28 | 1.01 |
| B29 | 1.1 |
| B30 | 10.8 |
| B31 | 0.83 |
| B32 | 1.03 |
| B33 | 1.1 |
| B34 | 30.9 |
| B35 | 1.11 |
| B36 | 0.91 |
| B37 | 11.2 |
| B38 | 1.18 |
| B39 | 0.93 |
| B40 | 0.88 |
| B41 | 3.21 |
| B42 | 1.5 |
| B43 | 0.9 |
| B44 | 0.81 |
| B45 | 1.1 |
| B46 | 1.35 |
| B47 | 3.35 |
